According to the RNAGym collection of RNA variant scans (doi:10.7554/elife.80360):

B1: HDV Ribozyme (parent)
chain: GGCCGGCAUGGUCCCAGCCUCCUCGCUGGCGCCGGCUGGGCAACAUUCCGAGGGGACCGUCCCCUCGGUAAUGGCGAAUGGGACCCA

Variants of: B1
Assay: self-cleavage, relative activity (ratio to wild type); higher = more cleavage; co-transcriptional

Variant	self-cleavage
GGCCGGCAUGGUCCCAGCCUCCUCGCUGGCGCCGGCUGGGCAGCAUUCCGAGGGGACCGUCCCCUCGGUAAUGGCCAAUGGGACCCA [A43G G76C]	0.58
GGCCGGCAUGGUCCCAGCCUCCUCGCUGGCGCCGGCUGGGCUACAUUCCGAGGGGACCGUCCCCUCGGUAAGGGCGAAUGGGACCCA [A42U U72G]	0.322
GGCCGGCAUGGUCCCAGCCUCCUCGCUGGCGCCGGCUGGGCACCAUUACGAGGGGACCGUCCCCUCGGUAAUGGCGAAUGGGACCCA [A43C C48A]	0.386
GGCCGGCAUGGUCCCAGCCUCCUCGCUGGCGCCGGCUGGGCAGCAUUCCGAGGGGACCGUCCCCUCGUUAAUGGCGAAUGGGACCCA [A43G G68U]	0.436
GGCCGGCAUGGUCCCAGCCUCCUCGCUGGCGCCGGCUGGGCACCAUUCCGAGGUGACCGUCCCCUCGGUAAUGGCGAAUGGGACCCA [A43C G54U]	0.374
GGCCGGCAUGGUCCCAGCCUCCUCGCUGGCGCCGGCUGGGCAGCAUUCCGGGGGGACCGUCCCCUCGGUAAUGGCGAAUGGGACCCA [A43G A51G]	0.26
GGCCGGCAUGGUCCCAGCCUCCUCGCUGGCGCCGGCUGGGCACCAUUCCGAGGGGACCGUCCCCUCGGUAACGGCGAAUGGGACCCA [A43C U72C]	0.578
GGCCGGCAUGGUCCCAGCCUCCUCGCUGGCGCCGGCUGGGCAGCAUUCCGAGGGGACCAUCCCCUCGGUAAUGGCGAAUGGGACCCA [A43G G59A]	0.811
GGCCGGCAUGGUCCCAGCCUCCUCGCUGGCGCCGGCUGGGCACCAUUCCCAGGGGACCGUCCCCUCGGUAAUGGCGAAUGGGACCCA [A43C G50C]	0.284
GGCCGGCAUGGUCCCAGCCUCCUCGCUGGCGCCGGCUGGGCAGCAUUCCGAGGGGACCGUCCCAUCGGUAAUGGCGAAUGGGACCCA [A43G C64A]	0.612
GGCCGGCAUGGUCCCAGCCUCCUCGCUGGCGCCGGCUGGGCACCAUUCCGAGGGGACCGGCCCCUCGGUAAUGGCGAAUGGGACCCA [A43C U60G]	0.68
GGCCGGCAUGGUCCCAGCCUCCUCGCUGGCGCCGGCUGGGCACCAUUCCGAGGGGACCGACCCCUCGGUAAUGGCGAAUGGGACCCA [A43C U60A]	0.249
GGCCGGCAUGGUCCCAGCCUCCUCGCUGGCGCCGGCUGGGCAGCAUUCCGAGGGGACCGUCCCCUCGGUAAUGGCGUAUGGGACCCA [A43G A77U]	0.0504
GGCCGGCAUGGUCCCAGCCUCCUCGCUGGCGCCGGCUGGGCACCAUUCCGAGGGGACCGUCCCCUCGGCAAUGGCGAAUGGGACCCA [A43C U69C]	0.582
GGCCGGCAUGGUCCCAGCCUCCUCGCUGGCGCCGGCUGGGCACCAUUCCGAGGGGACCGUCCCCUCGGUUAUGGCGAAUGGGACCCA [A43C A70U]	0.322
GGCCGGCAUGGUCCCAGCCUCCUCGCUGGCGCCGGCUGGGCACAAUUCCGAGGGGACCGUCCCCUCGGUAAUGGCGAAUGGGACCCA [A43C C44A]	0.665
GGCCGGCAUGGUCCCAGCCUCCUCGCUGGCGCCGGCUGGGCACCAUUCCGAGGGGACCGUCCCCUCGGUAAUGGCGAAUGGCACCCA [A43C G82C]	0
GGCCGGCAUGGUCCCAGCCUCCUCGCUGGCGCCGGCUGGGCACCAUUCCGAGGGCACCGUCCCCUCGGUAAUGGCGAAUGGGACCCA [A43C G55C]	0.312
GGCCGGCAUGGUCCCAGCCUCCUCGCUGGCGCCGGCUGGGCAGCAUUCCGAGAGGACCGUCCCCUCGGUAAUGGCGAAUGGGACCCA [A43G G53A]	0.532
GGCCGGCAUGGUCCCAGCCUCCUCGCUGGCGCCGGCUGGGCACCAUUCCGAGGGGACCGUCCCCACGGUAAUGGCGAAUGGGACCCA [A43C U65A]	0.623
GGCCGGCAUGGUCCCAGCCUCCUCGCUGGCGCCGGCUGGGCACCAUUCCGAGGGGACCGUCCCCGCGGUAAUGGCGAAUGGGACCCA [A43C U65G]	0.453
GGCCGGCAUGGUCCCAGCCUCCUCGCUGGCGCCGGCUGGGCACCAUUCCGAGGGGACCGUCCCCCCGGUAAUGGCGAAUGGGACCCA [A43C U65C]	0.482

Variant	self-cleavage
GGCCGGCAUGGUCCCAGCCUCCUCGCUGGCGCCGGCUGGGCACCAUUCCGAGGGGAGCGUCCCCUCGGUAAUGGCGAAUGGGACCCA [A43C C57G]	0.655
GGCCGGCAUGGUCCCAGCCUCCUCGCUGGCGCCGGCUGGGCACCAUUCCGAGGGGAUCGUCCCCUCGGUAAUGGCGAAUGGGACCCA [A43C C57U]	0.491
GGCCGGCAUGGUCCCAGCCUCCUCGCUGGCGCCGGCUGGGCAGGAUUCCGAGGGGACCGUCCCCUCGGUAAUGGCGAAUGGGACCCA [A43G C44G]	0.798
GGCCGGCAUGGUCCCAGCCUCCUCGCUGGCGCCGGCUGGGCAGUAUUCCGAGGGGACCGUCCCCUCGGUAAUGGCGAAUGGGACCCA [A43G C44U]	0.884
GGCCGGCAUGGUCCCAGCCUCCUCGCUGGCGCCGGCUGGGCACCAUUCCGAGGGGACCGUCCCGUCGGUAAUGGCGAAUGGGACCCA [A43C C64G]	0.415
GGCCGGCAUGGUCCCAGCCUCCUCGCUGGCGCCGGCUGGGCAGCAUUCCGAGGGGACCGUCCCCUCGGUAAUGGCGAAUGGGAGCCA [A43G C84G]	0.201
GGCCGGCAUGGUCCCAGCCUCCUCGCUGGCGCCGGCUGGGCAGCAUUCCGAGGGGACCGUCCCCUCGGUAAUGGCGAAUGGGAACCA [A43G C84A]	0.712
GGCCGGCAUGGUCCCAGCCUCCUCGCUGGCGCCGGCUGGGCAGCAUUCCGAGGGCACCGUCCCCUCGGUAAUGGCGAAUGGGACCCA [A43G G55C]	0.743
GGCCGGCAUGGUCCCAGCCUCCUCGCUGGCGCCGGCUGGGCAGCAUUCCGAGGGUACCGUCCCCUCGGUAAUGGCGAAUGGGACCCA [A43G G55U]	0.378
GGCCGGCAUGGUCCCAGCCUCCUCGCUGGCGCCGGCUGGGCAGCAUUCAGAGGGGACCGUCCCCUCGGUAAUGGCGAAUGGGACCCA [A43G C49A]	0.554
GGCCGGCAUGGUCCCAGCCUCCUCGCUGGCGCCGGCUGGGCACCAUUCCGAGGGGACCGUCCCCUCGGUAAUAGCGAAUGGGACCCA [A43C G73A]	0.407
GGCCGGCAUGGUCCCAGCCUCCUCGCUGGCGCCGGCUGGGCAGCAUUCCGAGGGGACCGUCCCCUCGGUAAUGGCGAAUGGGCCCCA [A43G A83C]	0.268
GGCCGGCAUGGUCCCAGCCUCCUCGCUGGCGCCGGCUGGGCAGCAUUCCGAGGGGACCGUCCCCUCCGUAAUGGCGAAUGGGACCCA [A43G G67C]	0.465
GGCCGGCAUGGUCCCAGCCUCCUCGCUGGCGCCGGCUGGGCACCUUUCCGAGGGGACCGUCCCCUCGGUAAUGGCGAAUGGGACCCA [A43C A45U]	0.554
GGCCGGCAUGGUCCCAGCCUCCUCGCUGGCGCCGGCUGGGCACCAUUCCGAGGGGACCGUCCCCUCGGUAAUGGCGAACGGGACCCA [A43C U79C]	0.113
GGCCGGCAUGGUCCCAGCCUCCUCGCUGGCGCCGGCUGGGCACCAUUCCGAGGGGACCGUCCCCUCGGUAAUGGCGAAAGGGACCCA [A43C U79A]	0.0791
GGCCGGCAUGGUCCCAGCCUCCUCGCUGGCGCCGGCUGGGCACCAUUCCGAGGGGACCGUCCCCUCGGUAAUGGCGAAGGGGACCCA [A43C U79G]	0.227
GGCCGGCAUGGUCCCAGCCUCCUCGCUGGCGCCGGCUGGGCACCAUUCCGAGGGGACCGUCCACUCGGUAAUGGCGAAUGGGACCCA [A43C C63A]	0.26
GGCCGGCAUGGUCCCAGCCUCCUCGCUGGCGCCGGCUGGGCACCAUUCCGAGGGGACCGUCCUCUCGGUAAUGGCGAAUGGGACCCA [A43C C63U]	0.529
GGCCGGCAUGGUCCCAGCCUCCUCGCUGGCGCCGGCUGGGCACCAAUCCGAGGGGACCGUCCCCUCGGUAAUGGCGAAUGGGACCCA [A43C U46A]	0.877
GGCCGGCAUGGUCCCAGCCUCCUCGCUGGCGCCGGCUGGGCACCACUCCGAGGGGACCGUCCCCUCGGUAAUGGCGAAUGGGACCCA [A43C U46C]	0.435
GGCCGGCAUGGUCCCAGCCUCCUCGCUGGCGCCGGCUGGGCAGCAUUCCGAGGGGACCGUCCCCUCGGUAAUGGCGAAUGGGACUCA [A43G C85U]	0.446

Variant	self-cleavage
GGCCGGCAUGGUCCCAGCCUCCUCGCUGGCGCCGGCUGGGCAGCAUUCCGAGGGGACCGUCCCCUCGGUAAUGGCGAAUGGGACACA [A43G C85A]	0.44
GGCCGGCAUGGUCCCAGCCUCCUCGCUGGCGCCGGCUGGGCACCAUUCCGAGGGGACCGUCCCCUCGAUAAUGGCGAAUGGGACCCA [A43C G68A]	0.268
GGCCGGCAUGGUCCCAGCCUCCUCGCUGGCGCCGGCUGGGCAGCGUUCCGAGGGGACCGUCCCCUCGGUAAUGGCGAAUGGGACCCA [A43G A45G]	0.554
GGCCGGCAUGGUCCCAGCCUCCUCGCUGGCGCCGGCUGGGCACCAUUCCGAGGGGACCGUCCCCUCUGUAAUGGCGAAUGGGACCCA [A43C G67U]	0.299
GGCCGGCAUGGUCCCAGCCUCCUCGCUGGCGCCGGCUGGGCAGCAUUCCGAGGGGACCGUCCACUCGGUAAUGGCGAAUGGGACCCA [A43G C63A]	0.642
GGCCGGCAUGGUCCCAGCCUCCUCGCUGGCGCCGGCUGGGCAGCAUUCCGAGGGGACCGUCCGCUCGGUAAUGGCGAAUGGGACCCA [A43G C63G]	0.604
GGCCGGCAUGGUCCCAGCCUCCUCGCUGGCGCCGGCUGGGCACCAUUCCGAGGGGACCGUCCCCUCGGUAAUGGCGGAUGGGACCCA [A43C A77G]	0.317
GGCCGGCAUGGUCCCAGCCUCCUCGCUGGCGCCGGCUGGGCACCAUUCCGAGGGGACCGUCCCCUCGGUAUUGGCGAAUGGGACCCA [A43C A71U]	0.322
GGCCGGCAUGGUCCCAGCCUCCUCGCUGGCGCCGGCUGGGCACCAUUCCGAGGGGACCGUCCCCUCGGUACUGGCGAAUGGGACCCA [A43C A71C]	0.534
GGCCGGCAUGGUCCCAGCCUCCUCGCUGGCGCCGGCUGGGCAGCAUUCCGAGGGGACCGUGCCCUCGGUAAUGGCGAAUGGGACCCA [A43G C61G]	0.739
GGCCGGCAUGGUCCCAGCCUCCUCGCUGGCGCCGGCUGGGCACCAUUCCGAGGGGACCGUCCCCUCGGUAAUGGCGAAUGAGACCCA [A43C G81A]	0.248
GGCCGGCAUGGUCCCAGCCUCCUCGCUGGCGCCGGCUGGGCAGCAUUCCGAGGCGACCGUCCCCUCGGUAAUGGCGAAUGGGACCCA [A43G G54C]	0.511
GGCCGGCAUGGUCCCAGCCUCCUCGCUGGCGCCGGCUGGGCAGCAUUCCGAGGUGACCGUCCCCUCGGUAAUGGCGAAUGGGACCCA [A43G G54U]	0.514
GGCCGGCAUGGUCCCAGCCUCCUCGCUGGCGCCGGCUGGGCACCAUUCCGAGGGGACCAUCCCCUCGGUAAUGGCGAAUGGGACCCA [A43C G59A]	0.441
GGCCGGCAUGGUCCCAGCCUCCUCGCUGGCGCCGGCUGGGCAGCAUUCCGAGGGGACGGUCCCCUCGGUAAUGGCGAAUGGGACCCA [A43G C58G]	0.72
GGCCGGCAUGGUCCCAGCCUCCUCGCUGGCGCCGGCUGGGCAGCAUUCCGAGGGGACAGUCCCCUCGGUAAUGGCGAAUGGGACCCA [A43G C58A]	0.629
GGCCGGCAUGGUCCCAGCCUCCUCGCUGGCGCCGGCUGGGCAGCAUUCCGAGGGGACCGUCGCCUCGGUAAUGGCGAAUGGGACCCA [A43G C62G]	0.415
GGCCGGCAUGGUCCCAGCCUCCUCGCUGGCGCCGGCUGGGCAGCAUUCCGAGGGGACCGUCUCCUCGGUAAUGGCGAAUGGGACCCA [A43G C62U]	0.646
GGCCGGCAUGGUCCCAGCCUCCUCGCUGGCGCCGGCUGGGCAGCAUUCCUAGGGGACCGUCCCCUCGGUAAUGGCGAAUGGGACCCA [A43G G50U]	0.658
GGCCGGCAUGGUCCCAGCCUCCUCGCUGGCGCCGGCUGGGCACCAUUCCGAGGGGCCCGUCCCCUCGGUAAUGGCGAAUGGGACCCA [A43C A56C]	0.59
